Experiment [1] has as its target CCR5 (human (endogenous in SNU387, PLC/PRF-5, SK-HEP-1)) (UniProt P51681).
For experiment [2] the target is unchanged. The source holds these as a separate data set.

UniProt P51681, sequence (P51681 whole entry): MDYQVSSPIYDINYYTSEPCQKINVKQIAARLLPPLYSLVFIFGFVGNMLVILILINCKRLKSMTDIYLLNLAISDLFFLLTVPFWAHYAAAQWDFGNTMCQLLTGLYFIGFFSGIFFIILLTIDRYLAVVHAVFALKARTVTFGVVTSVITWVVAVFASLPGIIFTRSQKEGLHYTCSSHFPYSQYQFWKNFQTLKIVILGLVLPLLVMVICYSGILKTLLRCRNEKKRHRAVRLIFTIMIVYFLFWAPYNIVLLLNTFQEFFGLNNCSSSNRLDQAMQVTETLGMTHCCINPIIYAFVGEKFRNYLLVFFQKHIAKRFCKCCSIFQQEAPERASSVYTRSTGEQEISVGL

As for “CCL5 recombinant protein (from UniProt P13501 24-91) (ligand)”, the caspase-3 mRNA (qRT-PCR) in HCC cells: down-regulated with CCL5, higher with CCL5 plus maraviroc in two of the three cell lines in experiment [1] is 0.5 fold. In experiment [2], the Akt-1 mRNA (qRT-PCR) in PLC/PRF-5 cells treated with CCL5; diminished by maraviroc turned out to be 1.3 fold; the Akt-1 mRNA (qRT-PCR) in SK-HEP-1 cells treated with CCL5; diminished by maraviroc is 1.2 fold; the E-cadherin mRNA (qRT-PCR) in PLC/PRF-5 cells after exposure to maraviroc, compared to CCL5-treated cells stood at 0.3 fold; the E-cadherin mRNA (qRT-PCR) in SK-HEP-1 cells after exposure to maraviroc, compared to CCL5-treated cells amounted to 0.8 fold. In experiment [2], the beta-catenin mRNA (qRT-PCR) in PLC/PRF-5 cells treated with CCL5; diminished by maraviroc stood at 1.7 fold and the beta-catenin mRNA (qRT-PCR) in SK-HEP-1 cells treated with CCL5; diminished by maraviroc stood at 1.3 fold.

Values taken from article PMC7226629.
